Residue numbers refer to the chain shown, from its start. Values belong to the binder of their own block, whether it stands above or below them.
Molecular target: T1, mouse EpoR-Fc protein (muEpoR-Fc) (mouse, UniProt P14753 25-249)
T1 construct: Biotinylated in the assay; also called biotinylated muEpoR-Fc; not shown: Fc part not described
T1 sequence (looked up): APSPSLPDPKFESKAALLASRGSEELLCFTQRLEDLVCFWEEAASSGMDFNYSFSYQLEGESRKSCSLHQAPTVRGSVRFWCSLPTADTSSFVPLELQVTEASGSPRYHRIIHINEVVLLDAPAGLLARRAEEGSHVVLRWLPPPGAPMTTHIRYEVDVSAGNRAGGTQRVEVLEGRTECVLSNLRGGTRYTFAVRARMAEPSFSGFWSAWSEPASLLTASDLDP
Test: ELISA: antibody coated at 1 µg/ml, biotinylated muEpoR-Fc at 5 µg/ml, streptavidin-HRP, ABTS

binding result: binds
B1: clone 10 IgG2 protein (antibody, V domains shown)
VH: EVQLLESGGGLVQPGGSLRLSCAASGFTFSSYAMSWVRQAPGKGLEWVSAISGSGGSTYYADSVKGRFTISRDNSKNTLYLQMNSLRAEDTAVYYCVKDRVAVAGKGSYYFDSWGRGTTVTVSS
VL: QSVLTQPPSVSEAPGQRVTIACSGSSSNIGNNAVSWYQQLPGKAPTLLIYYDNLLPSGVSDRFSGSKSGTSASLAISGLQSEDEADYYCAAWDDSLNDWVFGGGTKVTVL
notes: Human IgG2; also called IgG2 10

binding result: binds
B2: clone 30 IgG2 protein (antibody, V domains shown)
VH: QVQLQESGPGLVKPSQTLSLTCAISGDSVSSNSAAWNWIRQSPSRGLEWLGRTYYRSKWYNDYAVSVKSRMTIKADTSKNQFSLQLNSVTPEDTAVYYCARDEGPLDYWGQGTLVTVSA
VL: QAVLTQPSSVSGAPGQRVTISCTGSSSNLGTGYDVHWYQQLPGTAPKLLIYGNSNRPSGVPDRFSGSKSDTSGLLAITGLQAEDEATYYCQSYDFSLSAMVFGGGTKVTVL
notes: Human IgG2; also called IgG2 30

binding result: binds
B3: clone 2 IgG2 protein (antibody, V domains shown)
VH: EVQLVQSGGGLVQPGGSLRLSCAASGFTFSSYWMSWVRQAPGKGLEWVANIKPDGSEKYYVDSVKGRFTISRDNAKNSVYLQMNSLRAEDTAVYYCARVSRGGSYSDWGQGTLVTVSS
VL: QSVLTQPPSASGSPGQSVTISCTGTSSDVGGYNYVSWYQQHPGKAPKLMIYEVSKRPSGVPDRFSGSKSGNTASLTVSGLQPEDEADYYCSSYAGRNWVFGGGTQLTVL
notes: Human IgG2 (vector pVE414NhuIgG2); light chain constant type matches the variable light chain isotype; also called IgG2 2; IgG22

binding result: binds
B4: clone 5 IgG2 protein (antibody, V domains shown)
VH: B3 VH with Q6E
VL: QSALTQPASVSGSPGQSITISCTGTSSDVGGYIYVSWYQQHPGKAPKLMIYDVSRRPSGISDRFSGSKSGNTASLTISGLQAEDEADYYCNSYTTLSTWLFGGGTKVTVL
notes: Human IgG2; also called IgG2 5; IgG25

binding result: binds
B5: clone 7 IgG2 protein (antibody, V domains shown)
VH: B3 VH with Q110K
VL: QSALTQPASVSGSPGQSIIISCTGTRSDIGGYNYVSWYQHHPGRAPKLIIFDVNNRPSGVSHRFSGSKSGNTASLTISGLQAEDEADYYCNSFTDSRTWLFGGGTKLTVL
notes: Human IgG2; also called IgG2 7
